From US20260151389A1, “Use of Tetramethylpyrazine Nitrone Derivatives In The Treatment of Ischemic Stroke” (GUANGZHOU MAGPIE PHARMACEUTICALS CO., L.T.D., priority 2021, published 2026)

Test system: patients with acute ischemic stroke
Experiment: multicenter, randomized, double-blind, parallel clinical trial in acute ischemic stroke
Format: in vivo, human
Details: thrombolytic group
Description: The present invention adopts a multicenter, randomized, double-blind, parallel trial clinical research design. The patients with acute ischemic stroke included in the clinical trial-center as subjects (all signed informed consent forms) were divided into non-thrombolytic group and thrombolytic group. The non-thrombolytic group consists of the saline group and the TBN group. The thrombolytic group consists of the t-PA group and the combination group of TBN+t-PA.
Subjects of the tests: Patients diagnosed with acute ischemic stroke were selected by clinical trial centers based on the diagnostic criteria of “Chinese Guidelines for the Diagnosis and Treatment of Acute Ischemic Stroke (2018)”.
Administration method: TBN (1400 mg) is dissolved in a sodium chloride injection bag (specification: 100 mL) and administered intravenously for 30 minutes. Dose of t-PA: 0.9 mg/Kg/dose; usage: added to physiological saline, 10% of the dose is administered via injected intravenous injection immediately within 1-2 minutes, and the remaining 90% is administered via intravenous drop infusion within 60 minutes. t-PA is administered only once on the first day of acute ischemic stroke. The medication schedule of TBN: D1-D7 administered twice a day, with an interval of 12 hours, for 7 consecutive days.

B1: t-PA: tissue type plasminogen activator ateplase (t-PA), thrombolytic drug (protein, UniProt P00750 36-562, looked up)
Tissue-type plasminogen …: SYQVICRDEKTQMIYQQHQSWLRPVLRSNRVEYCWCNSGRAQCHSVPVKSCSEPRCFNGGTCQQALYFSDFVCQCPEGFAGKCCEIDTRATCYEDQGISYRGTWSTAESGAECTNWNSSALAQKPYSGRRPDAIRLGLGNHNYCRNPDRDSKPWCYVFKAGKYSSEFCSTPACSEGNSDCYFGNGSAYRGTHSLTESGASCLPWNSMILIGKVYTAQNPSAQALGLGKHNYCRNPDGDAKPWCHVLKNRRLTWEYCDVPSCSTCGLRQYSQPQFRIKGGLFADIASHPWQAAIFAKHRRSPGERFLCGGILISSCWILSAAHCFQERFPPHHLTVILGRTYRVVPGEEEQKFEVEKYIVHKEFDDDTYDNDIALLQLKSDSSRCAQESSVVRTVCLPPADLQLPDWTECELSGYGKHEALSPFYSERLKEAHVRLYPSSRCTSQHLLNRTVTDNMLCAGDTRSGGPQANLHDACQGDSGGPLVCLNDGRMTLVGIISWGLGCGQKDVPGVYTKVTNYLDWIRDNMRP
  efficacy after 90 days compared with after 30 days of treatment: no significant difference in efficacy
90th day
  Lsmeans mRS: 1.61
